Source: article PMC2749940, “Kissing G Domains of MnmE Monitored by X-Ray Crystallography and Pulse Electron Paramagnetic Resonance Spectroscopy” (PLoS Biology, 2009)
Residue numbers refer to the chain shown, from its start. Numbers in names are those of the source.

Columns and labels:
NoMnmE = molecular target: T1, NoMnmE (Nostoc sp. PCC 7120 = FACHB-418, UniProt Q8YN91); assay: X-ray crystal structure; assay type: binding; conditions: copurified from E. coli; two sites in N-terminal domain dimer interface; GDP also bound
T1 construct: gene mnmE; full length, N-terminal His-tag (pET14b, E. coli BL21-DE3) cut by thrombin; homodimer
T1 sequence (Q8YN91 1-459): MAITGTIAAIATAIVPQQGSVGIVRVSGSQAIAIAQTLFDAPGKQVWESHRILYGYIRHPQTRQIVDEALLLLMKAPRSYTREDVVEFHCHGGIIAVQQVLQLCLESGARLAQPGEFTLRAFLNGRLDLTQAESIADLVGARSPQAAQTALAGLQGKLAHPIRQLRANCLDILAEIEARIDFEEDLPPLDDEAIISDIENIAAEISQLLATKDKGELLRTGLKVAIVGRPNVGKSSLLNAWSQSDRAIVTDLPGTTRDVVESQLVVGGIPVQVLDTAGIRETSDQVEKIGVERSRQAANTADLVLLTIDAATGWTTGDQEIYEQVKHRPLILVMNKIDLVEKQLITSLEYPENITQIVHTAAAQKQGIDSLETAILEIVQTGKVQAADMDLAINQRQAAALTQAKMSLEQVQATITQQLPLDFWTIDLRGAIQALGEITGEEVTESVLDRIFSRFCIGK

CtMnmE = molecular target: T2, CtMnmE (Chlorobaculum tepidum, UniProt Q8KAS1); assay: X-ray crystal structure (soak); assay type: binding; conditions: 5 mM 5-F-THF in cryoprotectant; N-terminal domain dimer interface; GDP also bound
T2 construct: gene mnmE; full length, N-terminal His-tag (pET14b, E. coli BL21-DE3) cut by thrombin; homodimer
T2 sequence (Q8KAS1 1-473): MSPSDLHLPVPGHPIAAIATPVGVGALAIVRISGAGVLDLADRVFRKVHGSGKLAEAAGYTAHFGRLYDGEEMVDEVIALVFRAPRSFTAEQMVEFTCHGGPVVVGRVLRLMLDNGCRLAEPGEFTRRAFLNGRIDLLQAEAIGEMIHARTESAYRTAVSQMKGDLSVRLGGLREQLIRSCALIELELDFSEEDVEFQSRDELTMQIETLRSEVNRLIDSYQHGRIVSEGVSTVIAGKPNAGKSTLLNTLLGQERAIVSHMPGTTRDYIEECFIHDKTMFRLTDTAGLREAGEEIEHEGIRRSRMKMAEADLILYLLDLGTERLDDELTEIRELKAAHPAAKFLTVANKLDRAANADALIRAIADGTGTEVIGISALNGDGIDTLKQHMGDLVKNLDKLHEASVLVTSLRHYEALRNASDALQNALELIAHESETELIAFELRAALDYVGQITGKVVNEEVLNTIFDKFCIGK

[1] = molecular target: the molecule itself; assay: crystal structure; full-length MnmE crystallised with K+, GDP and AlFx (only GDP found bound); hanging-drop vapour diffusion; homodimer by crystallographic symmetry
[2] = molecular target: the molecule itself; assay: pulse EPR (four-pulse DEER) of spin-labelled protein; 200–500 µM MTSSL-labelled protein in 100 mM KCl (or NaCl, RbCl, CsCl, NH4Cl), 50 mM Tris-HCl, 5 mM MgCl2 pH 7.4; apo, 1 mM GDP, 1 mM GppNHp or GDP-AlFx; measured at 50 K; distances between the two symmetry-related labels of the dimer

## Nc1nc2c(c(=O)[nH]1)N(C=O)[C@@H](CNc1ccc(C(=O)N[C@@H](CCC(=O)O)C(=O)O)cc1)CN2 [5-F-THF, 5-formyl-tetrahydrofolate]
NoMnmE
  X-ray crystal structure: two molecules of 5-formyl-tetrahydrofolate (5-F-THF) were identified in the structure of NoMnmE·GDP
CtMnmE
  X-ray crystal structure (soak): in the crystal structure 5-F-THF is found in identical positions as in the NoMnmE·GDP-dimer

B1: Chlorobium tepidum MnmE (natural protein, UniProt Q8KAS1 1-473, looked up)
chain: T2 sequence (Q8KAS1 1-473)
notes: MnmE of Chlorobium tepidum, full-length protomer, cloned into pET14b; Crystallised with GDP (grown with GDP-AlFx and K+) and with GppCp; homodimer through the N-terminal domains; also called CtMnmE; CtMnmE·GDP; source: E. coli BL21-DE3, purified (Ni-NTA, thrombin cleavage of the His-tag, gel filtration on Superdex 200); not shown: His tag, N-terminal, cleaved
[1]
  binding result: binds

B2: Nostoc sp. 7120 MnmE (natural protein, UniProt Q8YN91 1-459, looked up)
chain: T1 sequence (Q8YN91 1-459)
notes: MnmE of Nostoc sp; 7120, full-length protomer, cloned into pET14b; Crystallised with GDP (grown with GDP-AlFx and K+); 5-formyl-tetrahydrofolate was co-purified; also called NoMnmE; NoMnmE·GDP; source: E. coli BL21-DE3, purified (Ni-NTA, thrombin cleavage of the His-tag, gel filtration on Superdex 200); not shown: His tag, N-terminal, cleaved
[1]
  binding result: binds

B3: E. coli MnmE-C451S E287R1 (Glu287 mutated to Cys, MTSSL-labelled) (natural protein, UniProt P25522 1-454, looked up)
chain: MSDNDTIVAQATPPGRGGVGILRISGFKAREVAETVLGKLPKPRYADYLPFKDADGSVLDQGIALWFPGPNSFTGEDVLELQGHGGPVILDLLLKRILTIPGLRIARPGEFSERAFLNDKLDLAQAEAIADLIDASSEQAARSALNSLQGAFSARVNHLVEALTHLRIYVEAAIDFPDEEIDFLSDGKIEAQLNDVIADLDAVRAEARQGSLLREGMKVVIAGRPNAGKSSLLNALAGREAAIVTDIAGTTRDVLREHIHIDGMPLHIIDTAGLREASDEVERIGICRAWQEIEQADRVLFMVDGTTTDAVDPAEIWPEFIARLPAKLPITVVRNKADITGETLGMSEVNGHALIRLSARTGEGVDVLRNHLKQSMGFDTNMEGGFLARRRHLQALEQAAEHLQQGKAQLLGAWAGELLAEELRLAQQNLSEITGEFTSDDLLGRIFSSFSIGK
modifications: MTSSL spin label (R1 side chain) on the cysteine at 287
notes: MnmE of E. coli, full length, Cys mutant in the C451S background; also called EcMnmE E287R1; source: purified, nucleotide-free
[2]
  binding result: binds

B4: E. coli MnmE-C451S S278R1 (Ser278 mutated to Cys, MTSSL-labelled) (natural protein, UniProt P25522 1-454, looked up)
chain: B3 chain with S278C, C287E
modifications: MTSSL spin label (R1 side chain) on the cysteine at 278
notes: MnmE of E. coli, full length, Cys mutant in the C451S background; source: purified, nucleotide-free
[2]
  binding result: binds

B5: E. coli MnmE-C451S D366R1 (Asp366 mutated to Cys, MTSSL-labelled) (natural protein, UniProt P25522 1-454, looked up)
chain: B3 chain with C287E, D366C
modifications: MTSSL spin label (R1 side chain) on the cysteine at 366
notes: as for B4
[2]
  binding result: binds

B6: E. coli MnmE-C451S I105R1 (Ile105 mutated to Cys, MTSSL-labelled) (natural protein, UniProt P25522 1-454, looked up)
chain: B3 chain with I105C, C287E
modifications: MTSSL spin label (R1 side chain) on the cysteine at 105
notes: as for B4
[2]
  binding result: binds
